Test results: the supplement of paper PMC10567573

B1: PHTF1 (parent)
chain: SRHLNSQVKKTTTRWCHIVRDSDS

Variants of: B1
Test: protein stability index of a GFP-peptide fusion (GPS, HEK-293T) (PSI 1-6); higher = more stable
Settings: c terminus: a fixed tail appended
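Also: lentivirally expressed fusions sorted by FACS into six bins by GFP to DsRed ratio, PSI derived from sequencing read proportions per bin multiplied by bin number.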

| Variant | protein stability index |
| --- | --- |
| SRHLNSQVKKTPTRWCHIVRDSDS [T12P] | 2.71 |
| SRHLNSQVKKTYTRWCHIVRDSDS [T12Y] | 1.5 |
| SRHLNSQVKKTLTRWCHIVRDSDS [T12L] | 1.53 |
| SRHLNSQVKKTETRWCHIVRDSDS [T12E] | 2.68 |
| SRHLNSQVKKTATRWCHIVRDSDS [T12A] | 2.1 |
| SRHLNSQVKKTTTRWCHIVRDTDS [S22T] | 1.94 |
| SRHLNSQVKKTTTRWCHIVRDNDS [S22N] | 1.48 |
| SRHLNSQVKKTTTRWCHIVRDMDS [S22M] | 2.15 |
| SRHLNSQVKKTTTRWCHIVRDYDS [S22Y] | 1.94 |
| VRHLNSQVKKTTTRWCHIVRDSDS [S1V] | 1.84 |
| PRHLNSQVKKTTTRWCHIVRDSDS [S1P] | 2.47 |
| QRHLNSQVKKTTTRWCHIVRDSDS [S1Q] | 2.38 |
| ARHLNSQVKKTTTRWCHIVRDSDS [S1A] | 2.52 |
| SRHLNHQVKKTTTRWCHIVRDSDS [S6H] | 2.29 |
| SRHLNEQVKKTTTRWCHIVRDSDS [S6E] | 2.31 |
| SRHLNSQVKKTTTRWCHIVYDSDS [R20Y] | 2.4 |
| SRHLNSQVKKTTTRWCHIVPDSDS [R20P] | 2.3 |
| SRHLNSQVKKTTTRWCHIVMDSDS [R20M] | 1.69 |
| SRHLNSQVKKTTTRWCHIVIDSDS [R20I] | 1.18 |
| SRHANSQVKKTTTRWCHIVRDSDS [L4A] | 2.58 |
| SRHENSQVKKTTTRWCHIVRDSDS [L4E] | 2.56 |
| SRHRNSQVKKTTTRWCHIVRDSDS [L4R] | 1.95 |
| SRHLNSQVKKTTTRWCMIVRDSDS [H17M] | 1.91 |
| SRHLNSQVKKTTTRWCQIVRDSDS [H17Q] | 1.71 |

| Variant | protein stability index |
| --- | --- |
| SRHLNSQVKKTTTRWCHIVRDSDC [S24C] | 2 |
| SRHLNSQVKKTTTRWCHIVRDSDT [S24T] | 2.99 |
| SRHLNSQVKKTTTRWCHIVRDSDH [S24H] | 2.02 |
| SRHLNSQVKKTTTRWCHIVRDSDF [S24F] | 2.04 |
| SRHLNSQVKKTTTRWCHIVRDSDM [S24M] | 2.21 |
| SRHLNSQVKKTTTRWCHIVRDSDP [S24P] | 2.01 |
| SRHLNSQVKKTTTRWCHIVRDSDN [S24N] | 2.66 |
| SRHLNSQAKKTTTRWCHIVRDSDS [V8A] | 2.26 |
| SRHLNSQVKKTTTRWIHIVRDSDS [C16I] | 1.84 |
| SRHLNSQVKKTTTRWNHIVRDSDS [C16N] | 3.65 |
| SRHLNSQVKKTTTRWFHIVRDSDS [C16F] | 2.07 |
| SRHLNSQVKDTTTRWCHIVRDSDS [K10D] | 2.56 |
| SRHLNSQVKPTTTRWCHIVRDSDS [K10P] | 2.28 |
| SRHLNSQVHKTTTRWCHIVRDSDS [K9H] | 1.81 |
| SRHLNSQVYKTTTRWCHIVRDSDS [K9Y] | 1.68 |
| SRHLNSQVQKTTTRWCHIVRDSDS [K9Q] | 2.02 |
| SRHLNSQVRKTTTRWCHIVRDSDS [K9R] | 2.16 |
| SRHLNSQVWKTTTRWCHIVRDSDS [K9W] | 1.85 |
| SRHLNSQVKKTTTRWCHIVRDSKS [D23K] | 1.74 |
| SRHLNSQVKKTTTRWCHIVRDSSS [D23S] | 3.1 |
| SRHLNSQVKKTTTRWCHIVRDSCS [D23C] | 1.53 |
| SRHLNSQVKKTTTRWCHIVRDSHS [D23H] | 2.34 |
| SRHLNSQVKKTTTRWCHIVRDSFS [D23F] | 2.65 |
| SRHLNSQVKKTTTRWCHIVRDSAS [D23A] | 2.59 |

| Variant | protein stability index |
| --- | --- |
| SRHLNSQVKKTTTRWCHIVRDSRS [D23R] | 2.8 |
| SRHLNSMVKKTTTRWCHIVRDSDS [Q7M] | 1.73 |
| SRHLNSKVKKTTTRWCHIVRDSDS [Q7K] | 2.45 |
| SRHLNSPVKKTTTRWCHIVRDSDS [Q7P] | 2.69 |
| SRHLNSQVKKTTTRWCHIVRHSDS [D21H] | 1.44 |
| SRHLNSQVKKTTTRWCHIVRSSDS [D21S] | 2.14 |
| SRHLNSQVKKTTTRWCHIVRRSDS [D21R] | 1.55 |
| SSHLNSQVKKTTTRWCHIVRDSDS [R2S] | 2.23 |
| SFHLNSQVKKTTTRWCHIVRDSDS [R2F] | 2.56 |
| SCHLNSQVKKTTTRWCHIVRDSDS [R2C] | 2.12 |
| SMHLNSQVKKTTTRWCHIVRDSDS [R2M] | 2.13 |
| SRHLNSQVKKTTPRWCHIVRDSDS [T13P] | 1.8 |
| SRHLNSQVKKTTMRWCHIVRDSDS [T13M] | 2.1 |
| SRHLNSQVKKTTKRWCHIVRDSDS [T13K] | 1.76 |
| SRHLNSQVKKTTHRWCHIVRDSDS [T13H] | 2.02 |
| SRHLNSQVKKTTCRWCHIVRDSDS [T13C] | 2.73 |
| SRHLNSQVKKTTNRWCHIVRDSDS [T13N] | 1.91 |
| SRHLNSQVKKTTIRWCHIVRDSDS [T13I] | 1.41 |
| SRLLNSQVKKTTTRWCHIVRDSDS [H3L] | 2.08 |
| SRCLNSQVKKTTTRWCHIVRDSDS [H3C] | 1.95 |
| SRPLNSQVKKTTTRWCHIVRDSDS [H3P] | 1.64 |
| SRSLNSQVKKTTTRWCHIVRDSDS [H3S] | 1.5 |
| SRHLNSQVKKTTTRWCHLVRDSDS [I18L] | 3.42 |
| SRHLNSQVKKTTTRWCHCVRDSDS [I18C] | 2.13 |

| Variant | protein stability index |
| --- | --- |
| SRHLNSQVKKTTTRWCHPVRDSDS [I18P] | 3.35 |
| SRHLNSQVKKTTTRQCHIVRDSDS [W15Q] | 4.35 |
| SRHLNSQVKKTTTRPCHIVRDSDS [W15P] | 3.86 |
| SRHLNSQVKKTTTRDCHIVRDSDS [W15D] | 4.57 |
| SRHLNSQVKKTTTAWCHIVRDSDS [R14A] | 3.02 |
| SRHLNSQVKKTTTKWCHIVRDSDS [R14K] | 2.3 |
| SRHLNSQVKKTTTGWCHIVRDSDS [R14G] | 2.57 |
| SRHLNSQVKKTTTYWCHIVRDSDS [R14Y] | 2.05 |
| SRHLNSQVKKTTTRWCHIDRDSDS [V19D] | 3.23 |
| SRHLNSQVKKTTTRWCHIHRDSDS [V19H] | 1.66 |
| SRHLNSQVKKTTTRWCHIPRDSDS [V19P] | 2.42 |
| SRHLNSQVKKTTTRWCHIYRDSDS [V19Y] | 2.44 |
| SRHLNSQVKKTTTRWCHIFRDSDS [V19F] | 1.55 |
| SRHLNSQVKKTTTRWCHIRRDSDS [V19R] | 2.2 |
| SRHLMSQVKKTTTRWCHIVRDSDS [N5M] | 1.45 |
| SRHLSSQVKKTTTRWCHIVRDSDS [N5S] | 1.92 |
| SRHLNSQVKKPTTRWCHIVRDSDS [T11P] | 2 |
| SRHLNSQVKKVTTRWCHIVRDSDS [T11V] | 1.13 |
| SRHLNSQVKKFTTRWCHIVRDSDS [T11F] | 1.94 |
| SRHLNSQVKKKTTRWCHIVRDSDS [T11K] | 2.16 |
| SRHLNSQVKKNTTRWCHIVRDSDS [T11N] | 1.79 |
| SRHLNSQVKKYTTRWCHIVRDSDS [T11Y] | 2.41 |
